Source: US20030078191A1

Tests used:
Test in all cases: cell-based or functional assay
[1] = target: Gal4 activation domain alone (pGAD424 vector, no fusion) (UniProt P04386)
[2] = target: Gal4ad-ZipA(35-284) fusion (pGAD424 fusion) (Escherichia coli)
[3] = target: Gal4ad-ZipA(62-328) fusion (pGAD424 fusion) (Escherichia coli)
[4] = target: Gal4ad-ZipA(185-302) fusion (pGAD424 fusion) (Escherichia coli)
[5] = target: Gal4ad-ZipA(35-185) fusion (pGAD424 fusion) (Escherichia coli)
[6] = target: Gal4ad-ZipA(185-328) fusion (pGAD424 fusion) (Escherichia coli) (UniProt P77173)

Gal4ad-ZipA(62-328) fusion (pGAD424 fusion) (Escherichia coli), sequence (P04386 768-881): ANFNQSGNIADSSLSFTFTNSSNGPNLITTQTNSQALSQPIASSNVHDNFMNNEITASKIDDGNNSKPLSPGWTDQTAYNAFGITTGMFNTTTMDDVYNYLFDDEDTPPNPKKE
Gal4 activation domain alone (pGAD424 vector, no fusion), sequence (P04386 768-881 limits assumed): as the sequence (P04386 768-881) above
Gal4ad-ZipA(35-185) fusion (pGAD424 fusion) (Escherichia coli), sequence (P04386 768-881): as above
Gal4ad-ZipA(185-302) fusion (pGAD424 fusion) (Escherichia coli), sequence (P04386 768-881): as above
Gal4ad-ZipA(35-284) fusion (pGAD424 fusion) (Escherichia coli), sequence (P04386 768-881): as above

“Gal4 DNA-binding domain alone (pAS2-1 vector, no fusion) (from UniProt P04386 1-147)” showed a beta-galactosidase (lacZ reporter) activity, MUG fluorescence, yeast two-hybrid [1] of 621 units, a beta-galactosidase (lacZ reporter) activity, MUG fluorescence, yeast two-hybrid [2] of 832 units and a beta-galactosidase (lacZ reporter) activity, MUG fluorescence, yeast two-hybrid [3] of 743 units. For the same substance, the beta-galactosidase (lacZ reporter) activity, MUG fluorescence, yeast two-hybrid [4] was 1120 units, the beta-galactosidase (lacZ reporter) activity, MUG fluorescence, yeast two-hybrid [5] was 930 units and the beta-galactosidase (lacZ reporter) activity, MUG fluorescence, yeast two-hybrid [6] was 877 units.
